One test concerns the target T1, CFP-TALK2 (human, UniProt Q96T54-3 1-332).
T1 construct: human TALK2 (KCNK17), full-length cDNA NM_031460.3; The end of the tag is read from the order in the construct's name; also called KCNK17; source: HEK293, transiently transfected, in living cells; not shown: CFP, N-terminal, kept
T1 sequence (looked up): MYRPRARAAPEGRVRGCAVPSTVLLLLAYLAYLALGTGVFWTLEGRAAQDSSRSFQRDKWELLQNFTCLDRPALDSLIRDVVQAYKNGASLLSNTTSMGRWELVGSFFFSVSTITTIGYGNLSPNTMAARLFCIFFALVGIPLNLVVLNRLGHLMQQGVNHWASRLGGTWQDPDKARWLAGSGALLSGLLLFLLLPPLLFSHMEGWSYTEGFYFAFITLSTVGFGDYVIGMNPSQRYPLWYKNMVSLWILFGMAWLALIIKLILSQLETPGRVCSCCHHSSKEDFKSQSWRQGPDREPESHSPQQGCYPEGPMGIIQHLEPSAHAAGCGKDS
Briefly: FRET or BRET; acceptor photobleaching FRET (CFP donor, YFP acceptor) in HEK293 cells, confocal microscope; cDNA ratio CFP:YFP 1:1; E_FRET = percent increase in CFP emission after YFP photobleaching. Conditions: partners not purified.

The target of another test is T2, CFP-TASK1 (human, UniProt O14649 1-394).
T2 construct: human TASK1 (KCNK3), full-length cDNA NM_002246.2; The end of the tag is read from the order in the construct's name; also called KCNK3; source: HEK293, transiently transfected, in living cells; not shown: CFP, N-terminal, kept
Described as above. Conditions: partners not purified.

B1: TALK2-YFP (natural protein, human, UniProt Q96T54-3 1-332, looked up)
chain: MYRPRARAAPEGRVRGCAVPSTVLLLLAYLAYLALGTGVFWTLEGRAAQDSSRSFQRDKWELLQNFTCLDRPALDSLIRDVVQAYKNGASLLSNTTSMGRWELVGSFFFSVSTITTIGYGNLSPNTMAARLFCIFFALVGIPLNLVVLNRLGHLMQQGVNHWASRLGGTWQDPDKARWLAGSGALLSGLLLFLLLPPLLFSHMEGWSYTEGFYFAFITLSTVGFGDYVIGMNPSQRYPLWYKNMVSLWILFGMAWLALIIKLILSQLETPGRVCSCCHHSSKEDFKSQSWRQGPDREPESHSPQQGCYPEGPMGIIQHLEPSAHAAGCGKDS
notes: human TALK2 (KCNK17), full-length cDNA NM_031460.3; The end of the tag is read from the order in the construct's name; also called KCNK17; source: HEK293, transiently transfected, in living cells; not shown: YFP, C-terminal, kept
With B1, the E_FRET with CFP-TALK2 was 8.6%.

B2: TASK1-YFP (natural protein, human, UniProt O14649 1-394, looked up)
chain: MKRQNVRTLALIVCTFTYLLVGAAVFDALESEPELIERQRLELRQQELRARYNLSQGGYEELERVVLRLKPHKAGVQWRFAGSFYFAITVITTIGYGHAAPSTDGGKVFCMFYALLGIPLTLVMFQSLGERINTLVRYLLHRAKKGLGMRRADVSMANMVLIGFFSCISTLCIGAAAFSHYEHWTFFQAYYYCFITLTTIGFGDYVALQKDQALQTQPQYVAFSFVYILTGLTVIGAFLNLVVLRFMTMNAEDEKRDAEHRALLTRNGQAGGGGGGGSAHTTDTASSTAAAGGGGFRNVYAEVLHFQSMCSCLWYKSREKLQYSIPMIIPRDLSTSDTCVEQSHSSPGGGGRYSDTPSRRCLCSGAPRSAISSVSTGLHSLSTFRGLMKRRSSV
notes: human TASK1 (KCNK3), full-length cDNA NM_002246.2; The end of the tag is read from the order in the construct's name; also called KCNK3; source: HEK293, transiently transfected, in living cells; not shown: YFP, C-terminal, kept
Regarding B2, the E_FRET in the test with CFP-TALK2 turned out to be 7.8%; in the test with CFP-TASK1, 9.8%.
